Earlier results as cited in paper PMC10618199.

Biological target: insulin receptor site-2 (Homo sapiens) (UniProt P06213)

Chain of insulin (P01308 90-110): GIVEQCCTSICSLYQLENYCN

Kd: 400 nM
Substance: insulin (from UniProt P01308)
